{"source": "the RNAGym collection of RNA variant scans (doi:10.1101/gr.219683.116)", "parents": {"B1": {"name": "mRNA-splicing (parent)", "chain": "AGUUGCUGCUGGGAGCUCCAGCACAGUGAAAUGGACAGAAGGGCAGAGCAA"}}, "data": [{"variants_of": "B1", "test": "exon inclusion enrichment index; higher = more inclusion; WT1 exon 5 minigene, HEK293", "values": [{"variant": "G5A U7C G8A U10C A25G G26C", "exon inclusion enrichment index": 3.84}, {"variant": "G5A U7C G8A U10C A25G G26U", "exon inclusion enrichment index": 3.09}, {"variant": "G5A U7C G8A U10C A25G G26A", "exon inclusion enrichment index": 4.73}, {"variant": "G5A U7C G8A U10C A20U G21A", "exon inclusion enrichment index": 1.36}, {"variant": "G5A U7C G8A U10C A20U G21U", "exon inclusion enrichment index": 1.69}, {"variant": "G5A U7C G8A U10C A20U G21C", "exon inclusion enrichment index": 2.33}, {"variant": "G5A U7C G8A U10C A23U C24G", "exon inclusion enrichment index": 2.69}, {"variant": "G5A U7C G8A U10C A23U C24U", "exon inclusion enrichment index": 0.272}, {"variant": "G5A U7C G8A U10C A23U C24A", "exon inclusion enrichment index": 1.02}, {"variant": "G5A U7C G8A U10C A40G G41U", "exon inclusion enrichment index": 1.79}, {"variant": "G5A U7C G8A U10C A40G G41C", "exon inclusion enrichment index": 3.76}, {"variant": "G5A U7C G8A U10C A40G G41A", "exon inclusion enrichment index": 1.12}, {"variant": "G5A U7C G8A U10C C19G A20G", "exon inclusion enrichment index": 1.34}, {"variant": "G5A U7C G8A U10C C19G A20C", "exon inclusion enrichment index": 2.4}, {"variant": "G5A U7C G8A U10C C19G A20U", "exon inclusion enrichment index": 2.09}, {"variant": "G5A U7C G8A U10C A14G G15A", "exon inclusion enrichment index": 1.8}, {"variant": "G5A U7C G8A U10C A14G G15C", "exon inclusion enrichment index": 1.06}, {"variant": "G5A U7C G8A U10C A14G G15U", "exon inclusion enrichment index": 0.925}, {"variant": "G5A U7C G8A U10C A31U U32G", "exon inclusion enrichment index": 1.32}, {"variant": "G5A U7C G8A U10C A31U U32A", "exon inclusion enrichment index": 0.229}, {"variant": "G5A U7C G8A U10C A31U U32C", "exon inclusion enrichment index": 3.11}, {"variant": "G5A U7C G8A U10C A35U C36G", "exon inclusion enrichment index": 0.19}, {"variant": "G5A U7C G8A U10C A35U C36A", "exon inclusion enrichment index": 0.00832}, {"variant": "G5A U7C G8A U10C A35U C36U", "exon inclusion enrichment index": 0.0422}, {"variant": "G5A U7C G8A U10C A45G G46C", "exon inclusion enrichment index": 3.06}, {"variant": "G5A U7C G8A U10C A45G G46U", "exon inclusion enrichment index": 2.26}, {"variant": "G5A U7C G8A U10C A45G G46A", "exon inclusion enrichment index": 4.51}, {"variant": "G5A U7C G8A U10C A25U", "exon inclusion enrichment index": 2.57}, {"variant": "G5A U7C G8A U10C A25G", "exon inclusion enrichment index": 3.43}, {"variant": "G5A U7C G8A U10C A25C", "exon inclusion enrichment index": 4.03}, {"variant": "G5A U7C G8A U10C A37U G38C", "exon inclusion enrichment index": 1.52}, {"variant": "G5A U7C G8A U10C A37U G38U", "exon inclusion enrichment index": 0.601}, {"variant": "G5A U7C G8A U10C A37U G38A", "exon inclusion enrichment index": 0.876}, {"variant": "G5A U7C G8A U10C A30G", "exon inclusion enrichment index": 2.36}, {"variant": "G5A U7C G8A U10C A30U", "exon inclusion enrichment index": 1.71}, {"variant": "G5A U7C G8A U10C A30C", "exon inclusion enrichment index": 2.51}, {"variant": "G5A U7C G8A U10C A40U", "exon inclusion enrichment index": 1.97}, {"variant": "G5A U7C G8A U10C A40G", "exon inclusion enrichment index": 1.93}, {"variant": "G5A U7C G8A U10C A40C", "exon inclusion enrichment index": 2.82}, {"variant": "G5A U7C G8A U10C G15C C16G", "exon inclusion enrichment index": 2.13}, {"variant": "G5A U7C G8A U10C G15C C16U", "exon inclusion enrichment index": 2.28}, {"variant": "G5A U7C G8A U10C G15C C16A", "exon inclusion enrichment index": 1.77}, {"variant": "G5A U7C G8A U10C A29U", "exon inclusion enrichment index": 0.801}, {"variant": "G5A U7C G8A U10C A29C", "exon inclusion enrichment index": 2.01}, {"variant": "G5A U7C G8A U10C A29G", "exon inclusion enrichment index": 3.4}, {"variant": "G5A U7C G8A U10C G15A C16U", "exon inclusion enrichment index": 1.55}, {"variant": "G5A U7C G8A U10C G15A C16G", "exon inclusion enrichment index": 1.31}, {"variant": "G5A U7C G8A U10C G15A C16A", "exon inclusion enrichment index": 1.46}, {"variant": "G5A U7C G8A U10C G21C C22G", "exon inclusion enrichment index": 3.61}, {"variant": "G5A U7C G8A U10C G21C C22A", "exon inclusion enrichment index": 2.27}, {"variant": "G5A U7C G8A U10C G21C C22U", "exon inclusion enrichment index": 2.19}, {"variant": "G5A U7C G8A U10C A47C G48A", "exon inclusion enrichment index": 1.74}, {"variant": "G5A U7C G8A U10C A47C G48U", "exon inclusion enrichment index": 2.34}, {"variant": "G5A U7C G8A U10C A47C G48C", "exon inclusion enrichment index": 2.06}, {"variant": "G5A U7C G8A U10C C24A A25C", "exon inclusion enrichment index": 3.6}, {"variant": "G5A U7C G8A U10C C24A A25U", "exon inclusion enrichment index": 2.06}, {"variant": "G5A U7C G8A U10C C24A A25G", "exon inclusion enrichment index": 2.4}, {"variant": "G5A U7C G8A U10C A25U G26U", "exon inclusion enrichment index": 1.75}, {"variant": "G5A U7C G8A U10C A25U G26C", "exon inclusion enrichment index": 2.25}, {"variant": "G5A U7C G8A U10C A25U G26A", "exon inclusion enrichment index": 2.39}, {"variant": "G5A U7C G8A U10C G11C G12C", "exon inclusion enrichment index": 0.415}, {"variant": "G5A U7C G8A U10C G11C G12A", "exon inclusion enrichment index": 0.351}, {"variant": "G5A U7C G8A U10C G11C G12U", "exon inclusion enrichment index": 0.353}, {"variant": "G5A U7C G8A U10C A37G G38C", "exon inclusion enrichment index": 2.62}, {"variant": "G5A U7C G8A U10C A37G G38U", "exon inclusion enrichment index": 0.991}, {"variant": "G5A U7C G8A U10C A37G G38A", "exon inclusion enrichment index": 2.19}, {"variant": "G5A U7C G8A U10C A20G G21A", "exon inclusion enrichment index": 2.82}, {"variant": "G5A U7C G8A U10C A20G G21C", "exon inclusion enrichment index": 2.62}, {"variant": "G5A U7C G8A U10C A20G G21U", "exon inclusion enrichment index": 2.6}, {"variant": "G5A U7C G8A U10C G26A U27A", "exon inclusion enrichment index": 2.4}, {"variant": "G5A U7C G8A U10C G26A U27G", "exon inclusion enrichment index": 2.93}, {"variant": "G5A U7C G8A U10C G26A U27C", "exon inclusion enrichment index": 3.43}, {"variant": "G5A U7C G8A U10C G26U U27C", "exon inclusion enrichment index": 3.63}, {"variant": "G5A U7C G8A U10C G26U U27G", "exon inclusion enrichment index": 3.47}, {"variant": "G5A U7C G8A U10C G26U U27A", "exon inclusion enrichment index": 1.08}, {"variant": "G5A U7C G8A U10C C18G", "exon inclusion enrichment index": 2.35}, {"variant": "G5A U7C G8A U10C C18A", "exon inclusion enrichment index": 1.35}, {"variant": "G5A U7C G8A U10C C18U", "exon inclusion enrichment index": 1.67}, {"variant": "G5A U7C G8A U10C C19A A20G", "exon inclusion enrichment index": 0.441}, {"variant": "G5A U7C G8A U10C C19A A20C", "exon inclusion enrichment index": 1.38}, {"variant": "G5A U7C G8A U10C C19A A20U", "exon inclusion enrichment index": 0.815}, {"variant": "G5A U7C G8A U10C G12U G13A", "exon inclusion enrichment index": 0.238}, {"variant": "G5A U7C G8A U10C G12U G13U", "exon inclusion enrichment index": 0.053}]}]}
